Source: patent US20230002480A1

Tests used:
Assay in all cases: cell-based or functional assay
[1] = target: HIV-1 Env of pseudovirus CNE8 (clade CRF01_AE) (HIV-1)
[2] = target: HIV-1 Env of pseudovirus R1166.c01 (clade CRF01_AE) (HIV-1)
[3] = target: MuLV envelope (negative control pseudovirus) (MuLV)
[4] = target: HIV-1 Env of pseudovirus MS208A1 (HIV-1)
[5] = target: HIV-1 Env of pseudovirus SC422661.8 (clade B) (HIV-1)
[6] = target: HIV-1 Env of pseudovirus ZM53M.PB12 (clade C) (HIV-1)
[7] = target: MuLV pseudovirus (Neg. Control) (MuLV)
[8] = target: HIV-1 Env pseudovirus CNE5 (HIV-1)
[9] = target: HIV-1 Env of pseudovirus 1394C9G1 (Rev-) (HIV-1)

10-1074 (antibody)
IC50, titer in TZM.bl cells [1]: > 50 µg/mL
IC80, titer in TZM.bl cells [1]: > 50 µg/mL
IC50, titer in TZM.bl cells [2]: > 50 µg/mL
IC80, titer in TZM.bl cells [2]: > 50 µg/mL

10E8 (antibody)
IC50, titer in TZM.bl cells [2]: 0.274 µg/mL
IC80, titer in TZM.bl cells [2]: 2.61 µg/mL

N49P6 (antibody)
IC50 [3]: > 50 µg/mL
IC80 [3]: > 50 µg/mL
MPI [3]: 0

N49P7 (antibody)
IC50, neutralization titer in TZM.bl cells [3]: > 50 µg/mL
IC80, neutralization titer in TZM.bl cells [3]: > 50 µg/mL
MPI, neutralization in TZM.bl cells [3]: 9
neutralization IC50 [4]: 0.12 µg/mL
neutralization IC80 [4]: 0.479 µg/mL
neutralization MPI [4]: 100

N49P7.1 (antibody)
IC50, neutralization titer in TZM.bl cells [3]: > 50 µg/mL
IC80, neutralization titer in TZM.bl cells [3]: > 50 µg/mL
MPI, neutralization in TZM.bl cells [3]: 4
neutralization IC50 [4]: 0.12 µg/mL
neutralization IC80 [4]: 0.431 µg/mL
neutralization MPI [4]: 100

N49P7.2 (antibody)
IC50 [5]: 0.119 µg/mL
IC80 [5]: 0.564 µg/mL
MPI [5]: 100
IC50 [6]: 0.477 µg/mL
IC80 [6]: 1.73 µg/mL
MPI [6]: 100
IC50 [3]: > 50 µg/mL
IC80 [3]: > 50 µg/mL
MPI [3]: 4

N49P9 (antibody)
IC50 [7]: > 50 µg/mL
IC80 [7]: > 50 µg/mL
MPI [7]: 13

N49P9.1 (antibody)
IC50 [8]: 0.183 µg/mL
IC80 [8]: 0.641 µg/mL
MPI [8]: 100

N49P11 (antibody)
IC50 [5]: 0.729 µg/mL
IC80 [5]: 3.49 µg/mL
MPI [5]: 100
IC50 [6]: 1.05 µg/mL
IC80 [6]: 6.53 µg/mL
MPI [6]: 100

N49P18.1 (antibody)
IC50 [5]: 14.1 µg/mL
IC80 [5]: 43.4 µg/mL
MPI [5]: 84
IC50 [6]: 1.3 µg/mL
IC80 [6]: 4.51 µg/mL
MPI [6]: 99
IC50 [3]: > 50 µg/mL
IC80 [3]: > 50 µg/mL
MPI [3]: 0

N49P19 (antibody)
IC50 [8]: 0.748 µg/mL
IC80 [8]: 3.29 µg/mL
MPI [8]: 100
IC50 [7]: > 50 µg/mL
IC80 [7]: > 50 µg/mL
MPI [7]: 0

PG9 (antibody)
IC50, titer in TZM.bl cells [2]: 0.736 µg/mL
IC80, titer in TZM.bl cells [2]: 2.88 µg/mL

PG16 (antibody)
IC50, titer in TZM.bl cells [2]: 0.28 µg/mL
IC80, titer in TZM.bl cells [2]: 4.38 µg/mL

VRC01 (antibody)
IC50, titer in TZM.bl cells [9]: 0.36 µg/mL
IC80, titer in TZM.bl cells [9]: 1.28 µg/mL
